Laboratory results from paper PMC6497303, “Molecular understanding of calcium permeation through the open Orai channel” (PLoS Biology, 2019).

Molecular target: the molecule itself
Test: crystal structure; purified dOrai-P288L in NG/NM detergent with POPC:POPE:POPG lipid, sitting drop, 17°C, sodium citrate pH 6.5, PEG400; 4.5 Å; 2 hexamers in each asymmetric unit

B1: Drosophila melanogaster Orai (dOrai) mutant (P288L) channel, amino acids 132 to 341 with C224S, C283T and P288L (domain or fragment, UniProt Q9U6B8 132-341, looked up)
chain: SMSQSGEDLHSPTYLSWRKLQLSRAKLKASSKTSALLSGFAMVAMVEVQLDHDTNVPPGMLIAFAICTTLLVAVHMLALMISTCILPNIETVSNLHSISLVHESPHERLHWYIETAWAFSTLLGLILFLLEIAILCWVKFYDLSPPAAWSATVVLILVMIIFMAFAIHFYRSLVSHKYEVTVSGIRELEMLKEQMEQDHLEHHNNIRNNG
notes: Orai, Drosophila melanogaster, UniProt Q9U6B8, residues 132 to 341 with C224S, C283T and P288L; codons optimised for Homo sapiens; PreScission site between Orai and eGFP; residues of the site may be left after 3C cleavage; also called dOrai-P288L; dOrai-P288L channel; not shown: eGFP, C-terminal, cleaved
- stoichiometry N: 6
